Measured values published in patent publication US20180291110A1 (Hoffmann-La Roche, published 2018).
Changes are numbered by the printed parent chain. Names may count otherwise.

How the values were obtained:
[1] = biological target: T1, human transferrin receptor (recombinant, for surface plasmon resonance) (human, UniProt P02786 89-760); test: BIAcore, huTfR against cyTfR
T1 construct: also called huTfR; human transferrin receptor-biotinylated

[2] = biological target: T2, cynomolgus transferrin receptor (recombinant, for surface plasmon resonance) (cynomolgus); test: BIAcore
T2 chain: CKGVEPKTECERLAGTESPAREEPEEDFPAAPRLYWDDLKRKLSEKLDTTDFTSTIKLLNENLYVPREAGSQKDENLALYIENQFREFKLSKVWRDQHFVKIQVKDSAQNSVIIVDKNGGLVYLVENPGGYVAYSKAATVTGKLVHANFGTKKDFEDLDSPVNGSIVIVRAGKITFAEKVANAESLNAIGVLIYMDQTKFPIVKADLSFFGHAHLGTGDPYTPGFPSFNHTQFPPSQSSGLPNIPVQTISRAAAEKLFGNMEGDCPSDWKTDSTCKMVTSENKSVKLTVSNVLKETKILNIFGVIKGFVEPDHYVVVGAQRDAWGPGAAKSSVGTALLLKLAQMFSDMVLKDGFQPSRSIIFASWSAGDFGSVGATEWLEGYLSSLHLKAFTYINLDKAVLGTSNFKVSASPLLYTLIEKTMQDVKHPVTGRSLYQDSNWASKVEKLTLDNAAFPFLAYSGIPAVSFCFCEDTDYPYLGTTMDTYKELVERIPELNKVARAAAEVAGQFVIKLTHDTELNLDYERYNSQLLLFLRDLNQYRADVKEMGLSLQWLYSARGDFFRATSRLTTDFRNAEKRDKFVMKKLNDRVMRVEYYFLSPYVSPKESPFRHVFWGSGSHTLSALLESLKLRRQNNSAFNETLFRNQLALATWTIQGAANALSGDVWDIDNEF

[3] = biological target: T1, human transferrin receptor …; test: BIAcore
[4] = biological target: T3, cynomolgus transferrin receptor on CHO-K1 cells (cynomolgus, UniProt H9EXL1 1-760 (rhesus entry)); test: FACS, cyTfR-CHO
T3 construct: whole, on cells; also called cyTfR; Cyno TfR-CHO

[5] = biological target: T4, human transferrin receptor on CHO-K1 cells (human, UniProt P02786 1-760); test: FACS, hTfR-CHO
T4 construct: whole, on cells; also called hTfR-CHO

[6] = biological target: T3, cynomolgus transferrin receptor on …; test: FACS, cyTfR-CHO against hTfR-CHO
[7] = biological target: T5, transferrin receptor on BA/F3 cells (UniProt Q62351 1-763, limits assumed); test: flow cytometry on mTfR+ BA/F3 cells, PE-labeled goat anti-human Fc gamma secondary antibody
T5 construct: whole, on cells; also called TfR+ BA/F3 cells; TfR+ BAF3 cells

[8] = biological target: T6, HER2 on cells (BT474-M1, BT-474) (human, UniProt P04626 23-1255); test: flow cytometry on HER2+ BT474 M1 cells, PE-labeled goat anti-human Fc gamma secondary antibody
T6 construct: whole, on cells; also called HER2+ BT474-M1 cells

[9] = biological target: T7, Her2 ECD (amino acids 1 to 629 of matured HER2 with C-terminal avi-tag and His-tag) (human, UniProt P04626 23-652); test: SPR, Ab captured, Her2 analyte
T7 construct: also called purified Her2

[10] = biological target: T7, Her2 ECD (amino acids 1 to 629 of …); test: SPR; Pertuzumab heavy chain with the CLC
[11] = biological target: T7, Her2 ECD (amino acids 1 to 629 of …); test: SPR, antibody captured, Her2 analyte; N/A in Table 18

T5 sequence (Q62351 whole entry): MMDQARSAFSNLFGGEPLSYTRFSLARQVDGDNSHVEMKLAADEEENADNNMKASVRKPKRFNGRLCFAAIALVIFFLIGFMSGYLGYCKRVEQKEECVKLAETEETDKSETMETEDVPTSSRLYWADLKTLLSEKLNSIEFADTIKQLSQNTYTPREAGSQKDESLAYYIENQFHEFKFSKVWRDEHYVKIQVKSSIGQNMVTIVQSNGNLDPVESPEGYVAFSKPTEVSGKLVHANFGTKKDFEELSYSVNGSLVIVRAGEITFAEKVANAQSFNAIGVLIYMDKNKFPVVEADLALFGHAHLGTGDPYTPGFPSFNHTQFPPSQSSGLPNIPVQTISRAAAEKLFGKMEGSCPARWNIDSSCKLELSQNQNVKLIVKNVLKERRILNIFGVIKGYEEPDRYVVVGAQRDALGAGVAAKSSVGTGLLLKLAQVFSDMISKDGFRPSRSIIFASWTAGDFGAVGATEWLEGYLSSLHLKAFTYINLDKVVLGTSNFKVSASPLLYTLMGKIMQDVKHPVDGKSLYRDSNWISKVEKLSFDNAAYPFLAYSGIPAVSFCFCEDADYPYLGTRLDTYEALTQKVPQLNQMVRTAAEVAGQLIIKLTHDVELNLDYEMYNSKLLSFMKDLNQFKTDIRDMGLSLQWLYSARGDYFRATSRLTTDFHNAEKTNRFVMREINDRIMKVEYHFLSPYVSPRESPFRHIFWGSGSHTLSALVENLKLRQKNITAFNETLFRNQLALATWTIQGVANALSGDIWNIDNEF

B1: Rabbit anti-transferrin antibody clone 2/99 (antibody, V domains shown)
VH: QSMEESGGRLVTPGTPLTLTCTVSGFSLSSYAMSWVRQAPGKGLEWIGYIWSGGSTDYASWAKGRFTISKTSTTVDLKITSPTTEDTATYFCARRYGTSYPDYGDANGFDPWGPGTLVTVSS
VL: AYDMTQTPASVEVAVGGTVTIKCQASQSISSYLSWYQQKPGQRPKLLIYRASTLASGVSSRFKGSGSGTQFTLTISGVECADAATYYCQQCYSSSNVDNTFGGGTEVVVKR
notes: also called antibody 2/99
[1]
  ratio t1/2 human/Cyno: 0.4
[2]
  koff: 0.000277 s⁻¹
  t1/2: 42 min
[3]
  koff: 0.000616 s⁻¹
  t1/2: 19 min
[4]
  EC50: 0.241 µg/mL
[5]
  EC50: 0.275 µg/mL
[6]
  ratio EC50 Cyno/human: 0.9
  ratio max Cyno/human: 1

B2: Herceptarg-LALA (BBB-0582) (bispecific antibody, human IgG1, kappa, L234A L235A)
heavy 1: not shown
heavy 2: EVQLVESGGGLVQPGGSLRLSCAASGFTFNDYTMDWVRQAPGKGLEWVADVNPNSGGSIVNRRFKGRFTLSVDRSKNTLYLQMNSLRAEDTAVYYCARNLGPFFYFDYWGQGTLVTVSSASTKGPSVFPLAPSSKSTSGGTAALGCLVKDYFPEPVTVSWNSGALTSGVHTFPAVLQSSGLYSLSSVVTVPSSSLGTQTYICNVNHKPSNTKVDKKVEPKSCDKTHTCPPCPAPEAAGGPSVFLFPPKPKDTLMISRTPEVTCVVVDVSHEDPEVKFNWYVDGVEVHNAKTKPREEQYNSTYRVVSVLTVLHQDWLNGKEYKCKVSNKALGAPIEKTISKAKGQPREPQVCTLPPSRDELTKNQVSLSCAVKGFYPSDIAVEWESNGQPENNYKTTPPVLDSDGSFFLVSKLTVDKSRWQQGNVFSCSVMHEALHNRFTQKSLSLSPGK
light: DIQMTQSPSSLSASVGDRVTITCKASQDVSTAVAWYQQKPGKAPKLLIYSASFRYTGVPSRFSGSRSGTDFTLTISSLQPEDFATYYCQQHYTTPPTFGQGTKVEIKRTVAAPSVFIFPPSDEQLKSGTASVVCLLNNFYPREAKVQWKVDNALQSGNSQESVTEQDSKDSTYSLSSTLTLSKADYEKHKVYACEVTHQGLSSPVTKSFNRGEC
notes: also called bivalent Herceptarg(LALA); Herceptarg-LALA-PG
[7]
  binding result: no binding (tested: 200 nM)
[8]
  EC50 (read off the curve): ~2 nM

B3: Herceptarg (control molecule without BBB-R binder) (bispecific antibody, human IgG1, kappa)
heavy 1: not shown
heavy 2: not shown
light: B2 light
notes: also called bivalent Herceptarg
[7]
  binding result: no binding (tested: 200 nM)
[8]
  EC50 (read off the curve): ~2 nM

B4: Pertuzumab HC x Pertuzumab (Tras.L3)(QM) LC (antibody, V domains shown)
VH: EVQLVESGGGLVQPGGSLRLSCAASGFTFTDYTMDWVRQAPGKGLEWVADVNPNSGGSIYNQRFKGRFTLSVDRSKNTLYLQMNSLRAEDTAVYYCARNLGPSFYFDYWGQGTLVTVSS
VL: DIQMTQSPSSLSASVGDRVTITCKASQDVSTAVAWYQQKPGKAPKLLIYSASFRYTGVPSRFSGSRSGTDFTLTISSLQPEDFATYYCQQHYTTPPTFGQGTKVEIK
notes: also called Pertuzumab heavy chain with the common light chain (CLC)
[9]
  Kd: 34.2 nM
  koff: 0.00324 s⁻¹
  kon: 94600 M⁻¹ s⁻¹
[10]
  Kd: 34 nM

B5: Trastuzumab HC x Pertuzumab (Tras.Y91H) LC (antibody, V domains shown)
VH: not shown
VL: B4 VL with T31I, A32G, F53Y, R66G, T93I, T94Y, P96Y
notes: human IgG
[11]
  binding result: no binding (tested: 300 nM)
